Measurements from patent US8906858B2, “Method for the prophylactic or therapeutic treatment of glucocorticoid-induced osteoporosis” (Fritz-Lipmann-Institut E. V. Leibniz-Institut Fuer …, priority 2010, dated 2014).

System: primary wild type osteoblasts
Test: Soluble factors added to osteoblasts during osteogenic induction in presence or absence of Dex
Type: cell-based, mouse
Method: FIG. 7. Differential gene regulation in GR^dim osteoblasts and bone organs by GCs and involvement of AP-1 in suppression of IL-11 in osteoblast differentiation. (A-E) Primary osteoblasts were grown until confluence and treated as described in FIG. 4A. qRT-PCR-determined mRNA expression levels of GILZ, Per-1, KLF15, Lif (LIF) and II11 (IL-11) after six hours. (F-H) qRT-PCR-determined mRNA expression level of IL-11 in organ cultures of GR mutant fetal hind legs (F), in dN^Runx2Cre osteoblasts (G) and c-jun^null MEFs (H) after six hours treatment. (I) Chromatin immunoprecipitation of MEFs after six hours. […] IgG precipitation served as negative control and amplification of the input as positive control. […] At day 10, ALP activity was determined and at day 20, Alizarin Red staining was performed. (K) Quantification of ALP-positive cells treated as in (J) after 10 days. (L) qRT-PCR-determined Runx2 mRNA expression level in cells treated as in (J) after 10 days.
FIG. 13. Effects of GR regulated soluble factors on osteoblast cell numbers. […] At day 10 cell counts were determined by automatic microscopy. Data are represented as mean+/−SEM. *<0.05.
FIG. 14. Effects of GR regulated soluble factors on osteoblast cell differentiation. Primary wild type osteoblasts were differentiated with or without Dex. At day 10 the specific ALP activity was determined and is depicted as ALP positive cells in percent in the absence or presence of NGF (A), IL-6 (B), EGF (C) and LIF (D). Data are represented as mean+/−SEM. * p<0.05; ** p<0.01.
Primary osteoblasts were isolated from either embryonic (E18.5) or neonatal calvaria by sequential digestions and cultivated as previously described (David et al., 2005). c-Jun-deficient cells were obtained from previously described mice (Schreiber et al., 1999). […] Differentiation of osteoblasts was determined by staining for ALP activity (ALP kit, Sigma or ELF® Phosphatase Detection Kit, ATCC) or by Alizarin Red staining (Sigma) at indicated time points. Apoptosis was detected by In situ Cell Death Detection Kit (Roche), and proliferation with fluorescent immunohistochemistry using mouse anti-Ki-67 (BD Pharmingen™) and Alexa Fluor® 594-labeled donkey anti-mouse IgG (Molecular Probes™). Quantification of the stainings and cell numbers according to DAPI labeling was performed by automated microscopy using Cellomics ArrayScan and software HCS Scan® (Thermo-Fischer). The factors EGF (Calbiochem), NGF2 (Sigma), IL-6 (ImmunoTools), IL-11 (Antigenix America, Inc.) and LIF (Chemicon) were added to the culture after differentiation at concentrations of 0.8, 4 and 20 ng/ml. qRT-PCR was performed as previously described (Tuckermann et al., 2007). Primer information can be provided upon request.

B1: HB-EGF: heparin binding-epidermal growth factor (protein, UniProt Q99075 63-148, looked up)
Heparin-binding EGF-like …: DLQEADLDLLRVTLSSKPQALATPNKEEHGKRKKKGKGLGKKRDPCLRKYKDFCIHGECKYVKELRAPSCICHPGYHGERCHGLSL
effect on osteoblast differentiation: inhibitory effect

B2: IL-11: recombinant Interleukin-11 (protein, UniProt P20809 22-199, looked up)
Interleukin-11: PGPPPGPPRVSPDPRAELDSTVLLTRSLLADTRQLAAQLRDKFPADGDHNLDSLPTLAMSAGALGALQLPGVLTRLRADLLSYLRHVQWLRRAGGSSLKTLEPELGTLQARLDRLLRRLQLLMSRLALPQPPPDPPAPPLAPPSSAWGGIRAAHAILGGLHLTLDWAVRGLLLLKTRL
rescue of Dex-impaired osteoblast differentiation (ALP positive cells) (day 10, with Dex): potently antagonized
rescue of Dex-reduced osteoblast cell numbers (day 10, with Dex): not rescuing
Dex suppression of ALP activity, of Runx2 expression and calcification (in the presence of IL-11): fully restored
